Assay results taken from paper PMC8219780, “The MLKL kinase-like domain dimerization is an indispensable step of mammalian MLKL activation in necroptosis signaling” (Cell Death & Disease, 2021).
Where a chain is given by its changes, count along the chain named. In names and notes the source's numbering stands.

Experiments:
[1] = molecular target: Flag-tagged human MLKL kinase-like domain, phosphomimic mutant T357ES358D, expressed in HEK293T (human); assay: cross-linking; whole-cell lysates of HEK293T cells expressing Flag-tagged MLKL KLD proteins (24 h); 500 uM DSG 30 min; SDS-PAGE, western blot anti-Flag
[2] = molecular target: Flag-tagged mouse MLKL kinase-like domain, phosphomimic mutant S345D, expressed in HEK293T (mouse) (UniProt Q9D2Y4); assay: as above
[3] = molecular target: human MLKL kinase-like domain, phosphor-sites' mutant T357A/S358A (179~471 aa), recombinant (human) (UniProt Q8NB16); assay: cross-linking; purified recombinant MLKL KLD proteins with 500 uM DSG, 30 min, room temperature; stopped with 100 mM Tris-HCl pH 7.5; SDS-PAGE, Coomassie
[4] = molecular target: the molecule itself; assay: SEC; gel filtration of purified recombinant human MLKL KLD proteins on Superdex 75; fractions on SDS-PAGE, Coomassie; standards BSA 67 kDa, ovalbumin 44 kDa, ribonuclease A 14 kDa
[5] = molecular target: the molecule itself; assay: cross-linking; purified recombinant MLKL KLD proteins with 500 uM DSG, 30 min, room temperature; stopped with 100 mM Tris-HCl pH 7.5; SDS-PAGE, Coomassie
[6] = molecular target: the molecule itself; assay: SEC; gel filtration of purified His-Sumo tagged human MLKL (126~181 aa) on Superdex 200; fractions on SDS-PAGE, Coomassie

## Flag-tagged human MLKL kinase-like domain, phosphomimic mutant T357ES358D, expressed in HEK293T (domain or fragment)
[1]
  stoichiometry N: 2

## Flag-tagged mouse MLKL kinase-like domain, phosphomimic mutant S345D, expressed in HEK293T (from UniProt Q9D2Y4 192-456) (domain or fragment)
[2]
  stoichiometry N: 2

## human MLKL kinase-like domain, phosphor-sites' mutant T357A/S358A (179~471 aa), recombinant (from UniProt Q8NB16 179-471) (domain or fragment)
[3]
  stoichiometry N: 2

B1: human MLKL kinase-like domain, phosphomimic mutant T357E/S358D (179~471 aa), recombinant (domain or fragment, UniProt Q8NB16 179-471, looked up)
chain: YLPPKCMQEIPQEQIKEIKKEQLSGSPWILLRENEVSTLYKGEYHRAPVAIKVFKKLQAGSIAIVRQTFNKEIKTMKKFESPNILRIFGICIDETVTPPQFSIVMEYCELGTLRELLDREKDLTLGKRMVLVLGAARGLYRLHHSEAPELHGKIRSSNFLVTQGYQVKLAGFELRKTQEDMSLGTTREKTDRVKSTAYLSPQELEDVFYQYDVKSEIYSFGIVLWEIATGDIPFQGCNSEKIRKLVAVKRQQEPLGEDCPSELREIIDECRAHDPSVRPSVDEILKKLSTFSK
notes: Mixed lineage kinase domain-like protein (MLKL), human, kinase-like domain, residues 179-471, T357E/S358D; GST removed with HRV3C protease; residues of the site may remain at the N-terminus; source: Sf9 insect cells (baculovirus), purified (Glutathione Sepharose 4B, on-column HRV3C digestion, Superdex 75 or 200); not shown: GST, N-terminal, cleaved
[4]
  stoichiometry N: 2

B2: human MLKL kinase-like domain, wild-type (179~471 aa), recombinant (domain or fragment, UniProt Q8NB16 179-471, looked up)
chain: B1 chain with E179T, D180S
notes: Mixed lineage kinase domain-like protein (MLKL), human, kinase-like domain, residues 179-471; residues of the site may remain at the N-terminus; also called MLKL KLD; WT; source: Sf9 insect cells (baculovirus), purified (Glutathione Sepharose 4B, on-column HRV3C digestion, Superdex 75 or 200); not shown: GST, N-terminal, cleaved
[5]
  stoichiometry N: 2

B3: His-Sumo tagged human MLKL (126~181 aa), internal coiled-coil region, wild-type (domain or fragment, UniProt Q8NB16 126-181, looked up)
chain: PISQGASWAQEDQQDADEDRRAFQMLRRDNEKIEASLRRLEINMKEIKETLRQYLP
notes: Vector PET-SUMO; also called internal coiled-coil in brace region; source: E. coli BL21(DE3), purified (NTA resin, Superdex 200)
[6]
  binding result: binds
